Experimental findings from patent US20260131000A1 (Memorial Sloan Kettering, published 2026) are described below.

Numbering of substitutions follows the chain as printed.

First the molecules themselves.
B1: 13F04 (antibody, V domains shown)
VH: QVQLQQPGAELVKPGASVKLSCKASGYIFISYWMHWVKQRPGQGLEWIGEINPRNGRTNYNEKFKSKATLTVDKSSSTAYMQLTSLTSEDSAVYYCARGGDYGGSFDYWGQGTTLTVSS
VL: DIVLTQSPASLAVSLGQRATISCRASESVDSYGNSFMHWYQQKPGQPPKLLIYRASNLESGIPARFSGSGSRTDFTLTVNPVEADDVATYYCQQSNEDPWTFGGGTKLEIK
B2: 143G03 (antibody, V domains shown)
VH: QVQLRQSGAELVRPGTSVKMSCKASGYTFTNYYIHWVKQRPGQGLEWIGKIGPGSGSPYYNGMFKDKATLTVDTSSSTAYMQLSSLTSEDSAVYFCARWLLPFDYWGQGTTLTVSS
VL: QIVLSQSPGILSASPGEKVTMTCRASSSVNYMHWYQQKSGSSPKPWIFATSILASGVPPRFSGSGSGTSYSLTISSVEAEDTATYYCQQFSSDPLTFGAGTKLELK
B3: 14A10 (antibody, V domains shown)
VH: EVQMVESGGGLVQPGGSLRLSCAAPGFIFSSYNMNWVRQAPGKGLEWVSYISSSSSTTYYADSVKGRFTISRDNAKNSLYLQMNSLRDEDTAVYYCASLYSGYDYYYYYGMDVWGQGTTVTVSS
VL: DIVMTQTPLSSPVSLGQPASISCRSSQSLVHSDGNTYLSWLQQRPGQPPRVLIYKISKRFSGVPDRFSGSGAGTDFTLKISRVEAEDVGVYYCMQATQFPFTFGPGTKVDIK
B4: 13G04 (antibody, V domains shown)
VH: QVQLVQSGAEVKKPGASVKVSCKASGYTFIGYYLHWVRQAPGQGLEWMGWINPNSGGTNSAQKFQGRVTMTRDTSISTTYMDLSRLRSDDTAVYYCARGGLERRDAFDIWGQGTLVTVSS
VL: DIQMTQSPSTLSASVGDRVTITCRASQSISNWLAWYQQKPGKAPNLLIYKASSLESGVPSRFSGSGSGTEFTLTISSLQPDDFATYYCQQYDTYRTFGQGTKVEIK
B5: Fab Construct 1 (chimeric 76H12 Fab, parental mouse 76H12 V-regions) (Fab, V domains shown)
VH: QVQLQQPGSDLVRPGTSVKLSCKASGYTFTSYWMHWVKQRPGQGLEWIGNVYPGSGSTKYDEKFKTKATLTVDTSSNTAYMELSSLTSEDSAVYYCTRPGNYEGFAYWGQGTLVTVSA
VL: B1 VL with D1N, N34S, R54L, I62V, V79I, N80D, V87A, S95N
notes: domain: CH1; also called Fab 1; chimeric Fab; not shown: constant region of human kappa light chain
B6: Fab Construct 2 (humanized 76H12 Fab) (Fab, V domains shown)
VH: QVQLVQSGAEVKKPGASVKVSCKASGYTFTSYWMHWVRQAPGQGLEWMGNVYPGSGSTKYAQKFQGRVTMTRDTSTSTVYMELSSLRSEDTAVYYCARPGNYEGFAYWGQGTLVTVSS
VL: NIQLTQSPSSLSASVGDRVTITCRASESVDSYGSSFMHWYQQKPGKPPKLLIYLASNLESGVPSRFSGSGSGTDFTLTISSLQPEDFATYYCQQNNEDPWTFGQGTKLEIK
notes: domain: CH1; also called Fab 2; h76H12_Hv0/h76H12_Lv3; not shown: constant region of human kappa light chain

Chain of human L1CAM overexpressed on HEK293T cells (P32004 20-1257): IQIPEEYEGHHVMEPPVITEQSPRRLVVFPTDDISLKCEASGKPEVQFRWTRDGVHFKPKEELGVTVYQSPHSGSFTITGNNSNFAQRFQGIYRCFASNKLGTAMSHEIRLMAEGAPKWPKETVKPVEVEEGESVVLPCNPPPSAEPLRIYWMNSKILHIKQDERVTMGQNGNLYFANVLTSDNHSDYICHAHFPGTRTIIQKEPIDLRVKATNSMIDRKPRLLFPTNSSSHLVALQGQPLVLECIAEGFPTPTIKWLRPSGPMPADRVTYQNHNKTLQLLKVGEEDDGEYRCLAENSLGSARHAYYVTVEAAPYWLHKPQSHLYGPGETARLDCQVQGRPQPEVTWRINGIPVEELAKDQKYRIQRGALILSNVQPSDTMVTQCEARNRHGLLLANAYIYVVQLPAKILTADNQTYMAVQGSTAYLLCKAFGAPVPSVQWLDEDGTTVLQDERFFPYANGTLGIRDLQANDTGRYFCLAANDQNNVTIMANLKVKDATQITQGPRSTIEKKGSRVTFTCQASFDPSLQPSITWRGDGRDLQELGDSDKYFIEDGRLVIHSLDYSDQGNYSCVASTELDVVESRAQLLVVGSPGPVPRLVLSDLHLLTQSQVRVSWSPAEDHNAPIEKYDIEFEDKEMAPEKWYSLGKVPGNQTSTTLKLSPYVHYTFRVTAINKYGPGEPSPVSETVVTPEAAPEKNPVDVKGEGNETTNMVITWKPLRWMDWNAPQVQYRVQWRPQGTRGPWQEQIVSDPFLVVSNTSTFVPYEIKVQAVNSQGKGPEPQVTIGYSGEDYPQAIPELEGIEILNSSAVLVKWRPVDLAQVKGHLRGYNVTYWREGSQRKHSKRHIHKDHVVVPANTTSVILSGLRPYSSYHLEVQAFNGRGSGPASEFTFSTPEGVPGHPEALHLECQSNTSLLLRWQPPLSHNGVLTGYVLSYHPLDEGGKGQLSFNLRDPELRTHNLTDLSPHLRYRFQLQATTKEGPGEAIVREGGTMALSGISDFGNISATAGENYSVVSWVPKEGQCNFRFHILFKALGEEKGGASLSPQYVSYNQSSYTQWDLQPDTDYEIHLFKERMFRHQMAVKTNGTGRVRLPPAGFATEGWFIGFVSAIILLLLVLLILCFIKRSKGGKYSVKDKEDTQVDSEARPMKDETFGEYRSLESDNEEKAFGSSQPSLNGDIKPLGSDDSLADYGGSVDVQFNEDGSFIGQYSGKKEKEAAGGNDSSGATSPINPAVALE

The first test deals with L1CAM endogenously expressed on MCF-7 and MDA-MB-231 cells (UniProt P32004). The experiment in a line: flow cytometry, MDA-MB-231 cells. On the technique in general: A flow cytometer gives signals particle by particle.
Molecule B1 yielded a half-maximal effective concentration (EC50) of 1.7 nM.

Take B2: the concentration giving a half-maximal response (EC50) is 0.9 nM.

The molecule B3 came in with a concentration for a half-maximal effect (EC50) of 8.9 nM. This EC50 is about 9.9-fold higher than that of the molecule before.

Molecule B4 registered an EC50 of 6.7 nM. The EC50 values of the last two molecules are within 1.5-fold of each other.

A further test has as its target human L1CAM overexpressed on HEK293T cells (human, UniProt P32004 20-1257). In words: flow cytometry on HEK293T cells overexpressing L1CAM (panel HEK293T-L1CAM), GMFI ratio to 2nd only against log[Fab], nM. The source says:
A total of 11 humanized 76H12 Fab variants (Fabs 2-12) were generated in addition to a chimeric 76H12 Fab (Fab 1) containing the parental murine VH and VL sequences. The chimeric Fab served as the benchmark for comparative assessment of humanized Fab variants. […] All humanized variants bound to the L1CAM overexpressing cells, with most binding comparably to the chimeric 76H12 Fab. […] Here, recombinant L1CAM-Fc fusion protein was immobilized onto anti-Human IgG Fc Capture (AHC) biosensors and binding of Fabs was measured kinetically over a 3-200 nM concentration range. Kinetic data were fitted to a 1:1 binding model to compute association (kₒₙ) and dissociation (koff) rate constants, in addition to equilibrium dissociation constants (KD) as shown in Table 59. […] From these, Fab 3 represents the preferred humanized variant given higher identity to human germline IGHV1-46 and IGKV1-39 sequences resulting from fewer human-to-murine framework back mutations.
For B5, the concentration for a half-maximal effect (EC50 (read off the curve)) is about 70 nM.

As to B6, the concentration giving a half-maximal response (EC50 (read off the curve)) was about 200 nM.

The target in the next test is L1CAM endogenously expressed on MCF-7 and MDA-MB-231 cells (UniProt P32004). The experiment in a line: flow cytometry, MCF-7 cells.
Molecule B1 came in with an EC50 of 1.2 nM.

Consider B2, for which the 50% effective concentration (EC50) amounted to 0.35 nM. Against the preceding molecule, the EC50 is about 3.4-fold lower.

B3 yielded a 50% effective concentration (EC50) of 5.3 nM.

Consider B4, for which the concentration for a half-maximal effect (EC50) is 4.8 nM.

What is called EC50 is the midpoint of the concentration-response curve. What is called EC50 (read off the curve) is the concentration that produces a half-maximal response.
